T1: membrane-bound CNTFR (m-CNTFR), full-length human CNTFR (amino acids 1-372) (human, UniProt P26992 23-342)
T1 construct: whole, on cells; also called full-length CNTFR; CNTFR on HepG2/CNTFR cells
T1 sequence (looked up): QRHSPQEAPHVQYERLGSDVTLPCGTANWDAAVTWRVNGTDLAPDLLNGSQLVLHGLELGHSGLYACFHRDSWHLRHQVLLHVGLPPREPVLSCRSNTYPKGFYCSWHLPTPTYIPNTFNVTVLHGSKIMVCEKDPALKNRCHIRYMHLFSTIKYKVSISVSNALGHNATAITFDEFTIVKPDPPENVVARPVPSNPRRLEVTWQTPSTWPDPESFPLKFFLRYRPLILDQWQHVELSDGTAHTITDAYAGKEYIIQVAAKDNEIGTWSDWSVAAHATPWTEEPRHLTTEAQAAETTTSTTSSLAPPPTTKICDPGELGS

T2: solid phase-immobilized CNTFR (UniProt P26992 23-342, limits assumed)
T2 construct: also called CNTF alpha-receptor
T2 sequence (looked up): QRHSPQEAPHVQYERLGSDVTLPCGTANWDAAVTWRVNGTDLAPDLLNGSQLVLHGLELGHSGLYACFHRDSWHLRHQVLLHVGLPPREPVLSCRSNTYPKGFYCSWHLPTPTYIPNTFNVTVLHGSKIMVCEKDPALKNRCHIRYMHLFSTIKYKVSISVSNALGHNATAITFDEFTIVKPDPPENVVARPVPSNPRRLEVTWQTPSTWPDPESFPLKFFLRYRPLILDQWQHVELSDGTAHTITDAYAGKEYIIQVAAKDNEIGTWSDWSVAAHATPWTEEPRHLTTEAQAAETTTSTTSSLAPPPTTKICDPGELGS

T3: soluble CNTFR (s-CNTFR) (UniProt P26992 23-346, limits assumed)
T3 sequence (looked up): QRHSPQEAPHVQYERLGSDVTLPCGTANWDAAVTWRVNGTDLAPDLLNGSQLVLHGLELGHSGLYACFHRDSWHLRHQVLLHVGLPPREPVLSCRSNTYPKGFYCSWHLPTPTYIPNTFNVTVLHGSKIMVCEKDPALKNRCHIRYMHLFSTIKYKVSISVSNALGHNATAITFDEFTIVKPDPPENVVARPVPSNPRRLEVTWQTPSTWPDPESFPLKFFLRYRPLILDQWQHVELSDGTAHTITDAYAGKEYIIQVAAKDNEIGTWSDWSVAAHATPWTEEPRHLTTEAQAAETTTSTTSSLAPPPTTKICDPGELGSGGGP


Tests used:
[1] = biological target: T1, membrane-bound CNTFR (m-CNTFR), …; assay: CNTF surface binding on HepG2 cells stably transfected with full-length human CNTFR
[2] = biological target: T2, solid phase-immobilized CNTFR; assay: competition with biotinylated CNTF for binding to solid phase-immobilized CNTFR
Method: The CNTFR binding activity of CNTF and IA-CNTF was determined by measuring the ability of the proteins to compete with biotinylated CNTF for binding to solid phase-immobilized CNTFR, using a previously described procedure (Saggio et al., 1994; Saggio et al., 1995).

soluble CNTFR (s-CNTFR) = biological target: T3, soluble CNTFR (s-CNTFR); assay: cell-based or functional assay

Row | Binder | binding result [1] | fold reduction of affinity against wild-type CNTF [2] [fold] | stimulation of haptoglobin production in HepG2 cells at a subsaturating concentration of s-CNTFR; EC50 relative to CNTF (soluble CNTFR (s-CNTFR))
1 | human ciliary neurotrophic factor, wild type (hCNTF; SEQ ID NO: 1) (ligand, also called human CNTF; wild-type CNTF) MAFTEHSPLTPHRRDLCSRSIWLARKIRSDLTALTESYVKHQGLNKNINLDSADGMPVASTDQWSELTEAERLQENLQAYRTFHVLLARLLEDQQVHFTPTEGDFHQAIHTLLLQVAAFAYQIEELMILLEYKIPRNEADGMPINVGDGGLFEKKLWGLKVLQELSQWTVRSIHDLRFISSHQTGIPARGSHYIANNKKM | binds | – | –
2 | Thr169Ile/His174Ala/human CNTF (IA-CNTF; SEQ ID NO:2) (ligand, Produced in E. coli, purified by reverse-phase HPLC; also called Thr169Ile/His174Ala/hCNTF) MAFTEHSPLTPHRRDLCSRSIWLARKIRSDLTALTESYVKHQGLNKNINLDSADGMPVASTDQWSELTEAERLQENLQAYRTFHVLLARLLEDQQVHFTPTEGDFHQAIHTLLLQVAAFAYQIEELMILLEYKIPRNEADGMPINVGDGGLFEKKLWGLKVLQELSQWIVRSIADLRFISSHQTGIPARGSHYIANNKKM | – | 15 | 5 fold (EC50 relative to CNTF)

Reference: US6660467 (INSTITUTO DI RICERCHE DI BIOLOGIA MOLECOLARE P ANGELETTI S …, dated 2003)
